Laboratory results as given in the supplement of paper PMC7877785.
± gives the uncertainty stated by the source.

Assay: self-splicing fitness, log relative to wild type (ln ratio); higher = more splicing; Tetrahymena group I intron in knt gene, E. coli kanamycin selection, DiMSum; sequences stand for … in CUCUCU…GGAGGGAAAAGUUAUCAGGCAUGCACCUGGUAGCUAGUCUUUAAACCAAUAGAUUGCAUCGGUUUAAAAGGCAAGACCGUCAAAUUGCGGGAAAGGGGUCAACAGCCGUUCAGUACCAAGUCUCAGGGGAAACUUUGAGAUGGCCUUGCAAAGGGUAUGGUAAUAAGCUGACGGACAUGGUCCUAACCACGCAGCCAAGUCCUAAGUCAACAGAUCUUCUGUUGAUAUGGAUGCAGUUCACAGACUAAAUGUCGGUCGGGGAAGAUGUAUUCUUCUCAUAAGAUAUAGUCGGACCUCUCCUUAAUGGGAGCUAGCGGAUGAAGUGAUGCAACACUGGAGCCGCUGGGAACUAAUUUGUAUGCGAAAGUAUAUUGAUUAGUUUUGGAGUACUCGUGGUCG
Method in brief: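 Pooled colonies went to amplicon sequencing on an Illumina HiSeq 2500 after six replicate transformations. The plates were LB agar with 100 μg/mL carbenicillin, 50 μM IPTG and 0.2% rhamnose, with or without 25 μg/mL kanamycin, incubated overnight at 37°C or 30°C. The E. coli BL21(DE3) library had all eight P1ex-region intron nucleotides randomised, the intron placed in the knt kanamycin-resistance gene on pET-22b(+). DiMSum fitness is the error-weighted combination of replicate fold changes, kanamycin against none, normalised to wild type.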

Row | Sequence | self-splicing fitness (ln) (30 °C) | self-splicing fitness (ln) (37 °C)
1 | UGUUAGCAAUAUUACGAAUA | -1.32 ± 0.14 | -0.0107 ± 0.14
2 | UGUUAGCAAUAUUACGACCA | 0.586 ± 0.18 | -0.351 ± 0.24
3 | UGUUAGCAAUAUUACGAGAC | -3.17 ± 0.37 | –
4 | UGUUAGCAAUAUUACGAGAU | – | -2.58 ± 0.44
5 | UGUUAGCAAUAUUACGAGCA | -0.725 ± 0.12 | -0.136 ± 0.17
6 | UGUUAGCAAUAUUACGAGGU | -3.93 ± 0.28 | -2.8 ± 0.33
7 | UGUUAGCAAUAUUACGCAAC | -2.82 ± 0.44 | –
8 | UGUUAGCAAUAUUACGCAGC | – | -2.47 ± 0.38
9 | UGUUAGCAAUAUUACGCCCA | 0.342 ± 0.28 | -0.34 ± 0.41
10 | UGUUAGCAAUAUUACGCCUC | – | -0.642 ± 0.41
11 | UGUUAGCAAUAUUACGCGAA | -0.983 ± 0.12 | -0.191 ± 0.1
12 | UGUUAGCAAUAUUACGGCAG | 0.45 ± 0.1 | -1.03 ± 0.12
13 | UGUUAGCAAUAUUACGGCUA | -1.01 ± 0.19 | 0.14 ± 0.19
14 | UGUUAGCAAUAUUACGGCUG | 0.0825 ± 0.08 | 0.196 ± 0.12
15 | UGUUAGCAAUAUUACGGGAC | – | -2.99 ± 0.48
16 | UGUUAGCAAUAUUACGGUAC | – | -2.68 ± 0.48
17 | UGUUAGCAAUAUUACGUCGU | -3.5 ± 0.33 | -2.69 ± 0.23
18 | UGUUAGCAAUAUUACGUUAC | -1.97 ± 0.43 | –
19 | UUAAAGCAAUAUUACGAAUU | -1.97 ± 0.11 | -2.46 ± 0.21
20 | UUAAAGCAAUAUUACGAGUU | -2.82 ± 0.18 | -1.38 ± 0.16
21 | UUAAAGCAAUAUUACGAUCG | 0.538 ± 0.098 | 0.338 ± 0.13
22 | UUAAAGCAAUAUUACGAUGC | -2.82 ± 0.11 | -2.2 ± 0.083
23 | UUAAAGCAAUAUUACGCAGC | – | -2.68 ± 0.47
24 | UUAAAGCAAUAUUACGCGAG | -0.116 ± 0.071 | 0.3 ± 0.085
25 | UUAAAGCAAUAUUACGCGCC | -0.43 ± 0.15 | -0.00103 ± 0.24
26 | UUAAAGCAAUAUUACGCGGC | -2.74 ± 0.29 | -1.03 ± 0.2

Row | Sequence | self-splicing fitness (ln) (30 °C) | self-splicing fitness (ln) (37 °C)
27 | UUAAAGCAAUAUUACGCGUG | -0.256 ± 0.056 | -0.26 ± 0.068
28 | UUAAAGCAAUAUUACGGACG | 0.179 ± 0.079 | 0.835 ± 0.14
29 | UUAAAGCAAUAUUACGGCGG | 0.463 ± 0.11 | 0.0127 ± 0.13
30 | UUAAAGCAAUAUUACGGGAG | -1.34 ± 0.08 | -0.293 ± 0.12
31 | UUAAAGCAAUAUUACGUAGU | -3.87 ± 0.21 | -1.9 ± 0.18
32 | UUAAAGCAAUAUUACGUGGA | -2.45 ± 0.072 | -0.864 ± 0.073
33 | UUAAAGCAAUAUUACGUUAU | -2.14 ± 0.092 | -1.23 ± 0.11
34 | UUAAAGCAAUAUUACGUUCC | -2.36 ± 0.22 | -0.947 ± 0.21
35 | UUAAAGCAAUAUUACGUUGA | -0.721 ± 0.066 | -0.0751 ± 0.094
36 | UUACAGCAAUAUUACGAAAU | -3.69 ± 0.34 | -2.59 ± 0.33
37 | UUACAGCAAUAUUACGAACA | -0.742 ± 0.11 | -1.07 ± 0.12
38 | UUACAGCAAUAUUACGACAG | -1.02 ± 0.068 | -0.222 ± 0.083
39 | UUACAGCAAUAUUACGAGAC | -3.02 ± 0.27 | -2.18 ± 0.34
40 | UUACAGCAAUAUUACGAGGG | -3.1 ± 0.25 | -1.62 ± 0.21
41 | UUACAGCAAUAUUACGAGGU | -3.08 ± 0.22 | -2.72 ± 0.23
42 | UUACAGCAAUAUUACGAUAG | -0.427 ± 0.056 | 0.204 ± 0.07
43 | UUACAGCAAUAUUACGAUCC | -3.16 ± 0.13 | -2.28 ± 0.16
44 | UUACAGCAAUAUUACGCGCG | -0.121 ± 0.099 | 0.0717 ± 0.1
45 | UUACAGCAAUAUUACGCUAG | -0.779 ± 0.11 | -0.391 ± 0.11
46 | UUACAGCAAUAUUACGGGGG | -2.2 ± 0.14 | -1.77 ± 0.15
47 | UUACAGCAAUAUUACGGUCA | -0.595 ± 0.075 | -0.209 ± 0.088
48 | UUACAGCAAUAUUACGGUGA | -1.03 ± 0.099 | -0.122 ± 0.14
49 | UUACAGCAAUAUUACGUCAA | -1.14 ± 0.082 | -0.187 ± 0.081
50 | UUACAGCAAUAUUACGUCAG | -0.769 ± 0.067 | -0.337 ± 0.09
51 | UUACAGCAAUAUUACGUCCG | -1.53 ± 0.089 | -0.482 ± 0.14
